Laboratory results: the supplement of paper PMC12636428

test system: Saccharomyces cerevisiae; assay: transcriptional activation domain activity (GFP:mCherry ratio, weighted mean of sorted bins, harmonized to initial dataset scale) (arbitrary fluorescence ratio units); higher = stronger transcriptional activation; conditions: beta-estradiol 1 µM; induction time 4 h
Method: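 53-aa protein tiles (fungal proteins plus yeast TF control tiles) fused C-terminally to a DBD-estrogen-binding domain-mCherry synthetic TF, integrated in S. cerevisiae (URA3 locus) with a GFP reporter. Cells were induced with 1 uM beta-estradiol for 4 h at 30 C, FACS-sorted into 8 bins by GFP:mCherry ratio and barcodes sequenced. Activity is the read-weighted mean bin fluorescence (GFP:mCherry), averaged over barcodes (median 12); tiles under 50 reads were discarded. New active-learning values were harmonized by linear fit onto the scale of the initial (Hummel et al.) dataset. The assay saturates at low and high signal.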

First: RDDDAEEDKEEVPKKKNRKGQEVGGEAGKRVEEEEEEEAPKRKKKKAKAAAAD
Second: AFLLFLIYLTLFCWVCFATSSTWVWSEILSDGQYTESFMPVNYVLLAVLSGII
The “transcriptional activation domain activity” value of the first is lower: 13400 for the first, 49600 for the second.

Compared with “ILFCSWLSFRQLFFLFICNTHHWVFEDYFCHFSFFLSLFLMAITWKCFFFFFF”, “MEILKLPFYILHVLPLPIRGALATLTPLVRFHTVVVSLSCLLSLRCIYLLFFH” is higher in “transcriptional activation domain activity” value: 38900 for the first, 75300 for the second.

First: KKPPARLLAKKAPAAAAGGEEGSSKSAAKPAAPPVKKVVPAAAAAKPAKGGAP
Second: MAPTKAVAPAPAAAADGTVKRGRGRPPKDPSERKPKPEPSGRPRGRPKGSGGV
The “transcriptional activation domain activity” value of the first is lower: 28400 for the first, 33400 for the second.

First: GEEGKAEEAAGEEGKAEAEAGAESEKSAEGEGEASAEEGASGEEAAGEKAAGE
Second: RADARSTTRPDGSADESFDALEEEVEEYYIYVHYKTITQPSKALNLVALGRLQ
The “transcriptional activation domain activity” value of the first is lower: 26800 for the first, 52000 for the second.

Compared with “ILRKLGFIVHVQLPYNLMINYLRILGLEDDEVISRKAWNYLNDGLRTNIYVTY”, “GFLLLLLLLFVFSLVVVHGIVSVSVFYQFFRPYCRFFLFYPYWFIYFLFCLLA” is higher in “transcriptional activation domain activity” value: 55800 for the first, 58500 for the second.

Compared with “MFSCLLFLAYLPAISLIPCDCFWVFFFFFFLGCVKTRVLYLFFFFLCCSWFFY”, “IFAFGYWLEESGKLLRLDLFTRFYAWGRIVLPRVGDAMIFYWENDTFGIRRGF” is higher in “transcriptional activation domain activity” value: 47400 for the first, 69000 for the second.

Going from “MLYLYPLYLGYYLFLFLSISRLEKFLHIGSLITCLPRLVSLEIRLTLCLYYHL” to “AADADEDDEDAPKKAPKKPAKRGRKKADDDDEEPEEEAQPAKKKAKGGRKAKK”, the “transcriptional activation domain activity” value falls from 80100 to 47700.

Going from “TRSFNIMLGMVTFWGVFSLFAIAFQCGLPAPWVFIPSECPTGGYLYYPVIILN” to “KPAGIMMFYFPCLYGTFLVGCLGHEINILSMAIANAKLFLLSFLMRGMLCTWN”, the “transcriptional activation domain activity” value falls from 56000 to 43200.

Going from “GAGPVGYGPQGAGEGDGESKSDSETMRTATTQPPPKPKQLYFIYVLASHYGLG” to “MYNNIHIPFFVLFLFFFFLSLFFFFFSLIFFFSFYCILTLCWYAFCLFFLKKN”, the “transcriptional activation domain activity” value falls from 61700 to 34700.

Going from “PKRGRGRPPKDPAAKAAAAAAAAEAEANGEKKPGRGRPRKNPVPSGEGGEAVP” to “RPPVLRLRALTALITVLILLLAAIVVLYRFSERSLLYQTAFIYQAKIPYFNSI”, the “transcriptional activation domain activity” value rises from 19600 to 24500.

Going from “GWNTHRAQTYTQLAKHLQSHGFHCKQYLGWLCHNIVAIEVYWMMIHLKRILPL” to “SFCFILPFTALTLFIFFLSRISCWSAVWWLDDFWLLHICLDISFTFFLFYSFF”, the “transcriptional activation domain activity” value rises from 56300 to 62800.

Going from “EGSARGGEAGKKEERQADEKEHKGRARPGRGEKDGGGRGRREEERDRKEQNGG” to “CPSFPSSFFVWVFEPRVAVPNLLGIIYLFCLVSHLPSSLFILSGTLLPLIVCL”, the “transcriptional activation domain activity” value rises from 34000 to 61300.

First: AAQKFVSDIAADAYQYARVRTNATTGGRSKAEKNAQGGSSAAAKDKSKTVLTL
Second: SSEYEIGRPSEEEVTMTRMLDKVLRRSDAVDKESLCILAGQRVWHLRLTLHCL
The “transcriptional activation domain activity” value of the first is lower: 29700 for the first, 45500 for the second.

Compared with “QDEKHAEREGDTSSADGKEKSQDGDGGEKQKEGEGKPEKRNGVEAGAKNPAVK”, “MCCAECCLSSLVSFVSFFSRSLHSLTIRGFFLFPGTFHVILFLFFRFFIFFFH” is higher in “transcriptional activation domain activity” value: 10600 for the first, 47400 for the second.

First: MLLMPRLCPVYLIHFCMIYALHLVAPHLSFPLISSGFLIIFTLHYTSTLLTCL
Second: IVIPGGRPGSVGGGGWFGGSSVFLEGLEGLEDGVMFGNAWEFDLLDLEWLFPF
The “transcriptional activation domain activity” value of the first is lower: 49400 for the first, 121000 for the second.

Compared with “MGGCICLRWSCVNVFFSFVYSFGLACCFTSWEYGGVYLGEGGCFLFYLSFFFL”, “YHFCYHLRLYLYAFQPPLFLRLCHFFSYDGWYLGFTWGFFLFFRFHFPIPSFL” is lower in “transcriptional activation domain activity” value: 50500 for the first, 45900 for the second.

Compared with “MKGVCLKVGVVRPKKPNSGERKTARVRLSNGRQVTAYISGEGHNIQQHSVVLV”, “MPIGCLMRQVHWHRAEMREYQACLLIFQALLCTTGDPFAHILMYMWFGILYRF” is higher in “transcriptional activation domain activity” value: 53500 for the first, 58800 for the second.

First: FLAAVTCLLCVIGIFICLLFHANPYLRLIPLLIMIQSICFVLFSHFGLCLYRL
Second: EEDDVKSEKSSRSKRRESTKEEVASPVRSERGSDKSSRSKKRDIVAEAAAIVS
The “transcriptional activation domain activity” value of the first is higher: 39400 for the first, 35500 for the second.

Compared with “HIHCFVALFLVMPFFVLVFIVFLGGCNYCLQKKLVLPSLLLTFVIYGGGRLGF”, “FFLVLIYCPFPSFGPDLSLPFPSPFLSLHLLITILLSPLSPFYLFLFYFTSPS” is higher in “transcriptional activation domain activity” value: 37900 for the first, 84300 for the second.

Compared with “KFWFFLLFYYGFYNLTALLMVSQYFNLYSFHWWPKSIGGLWSTFFFWLFSMFL”, “SLLPSPPQAVIFLVLFFSFLLLALFGYLFYFPLIPFLKTSIPIFSTYYSFFFM” is lower in “transcriptional activation domain activity” value: 58400 for the first, 24300 for the second.

Going from “MVQCAVAECTEEGKSQCGRCKQRFYCSADCQQKDWKVHKKNCKSPAATSAQLS” to “SHQEHVIAQLMNKVKSVSTTKPYVEYFQMPSKSVFITIVALCLYVILLKKTPS”, the “transcriptional activation domain activity” value falls from 23100 to 15500.

First: MRTPSTSPFDFCFFFAFSFLLLCWPVIPFILLFYILKFLWTYPFVFCVLYFIE
Second: MADAVADAAANLKLEEGAAENAPKLQLDEETGEWVSKGELKKRLAKRAKKASK
The “transcriptional activation domain activity” value of the first is higher: 37600 for the first, 14100 for the second.

Compared with “PSDSRSRSRSRSASRKRGGAGRGGRSDSSDSEGDNSRRRQVSPARRRQRPARG”, “VVHLLSPKRLDILWGVNPKGIHIFRMVLFISLLFSYLGRSGSLMLSIARIFTY” is higher in “transcriptional activation domain activity” value: 38300 for the first, 45900 for the second.

Going from “EASRSKAATAAAAAADGGKSAAAGEVEERKRKAKAEREAKKAKGALAAAAGAG” to “NAEYICHYKGGLIGKHFKSLAQVMPFLIQDLLLRTVLDGWTCIGELVVYVWHM”, the “transcriptional activation domain activity” value rises from 31600 to 65800.

First: SSSTVVLAFGTDEKKIKEVGDALKTKLSVKGGGKGPRWSGKFAGVWKEDSAIE
Second: MYICVRKVYVHFDMNLRVYWIVAIMVKCICGLVELCLITSPPYIMLVLSKLFL
The “transcriptional activation domain activity” value of the first is lower: under 6570 for the first, 32100 for the second.

Compared with “LSLLSLCLGILHSSFKTCFVLLFVLIHICICTLFLIFSFFTPLLTIPTYVTLS”, “PAEGAEDAGEVKKKHRKRRRKRRGDAKDAAAEGGDEPENEDGEVGEGDNAAVS” is lower in “transcriptional activation domain activity” value: 57500 for the first, 9150 for the second.

Compared with “LLLPELFFFHLYWALIAFRFIPLLTLLRGMGYCLFFSLLFFFLFFSLFSVLFT”, “GRKKRAVKKKAEGAGAGAGGGGGGAEAEGKVETKGKKAAKPKSRTKAGAKAKG” is lower in “transcriptional activation domain activity” value: 53000 for the first, under 6570 for the second.

Compared with “HYNALNGRWKVFRNEKDEDSIRVVAGMVWWGKILVVTCVEKGVFQIRLFSSIN”, “AITRLSLVIDALKEGMRYDCDHVLETYQYDVLLVAGYFYLAAILDKSGVDPTA” is higher in “transcriptional activation domain activity” value: 7550 for the first, 52000 for the second.

First: LIWSCKLIWAAYLDMYRYHIYVLVSFEVVALLTWILTLLYGVPNLINLVYHAY
Second: MLIFVLIVCISLGLAMSFDSLSLHLQLHRLFCIFCVIFILFAHSFSVGLSCYI
The “transcriptional activation domain activity” value of the first is lower: 56300 for the first, 72000 for the second.

First: ATGAGSDANAGEDETFHKSGEATLSSQHRYKDAIDFRKIVLKLTDGVRWGLGI
Second: RWINSTIHNLFEVVMLPDLCGFCCFSMRFVVLLDLIGTLSLPVSFVYLVYLIY
The “transcriptional activation domain activity” value of the first is lower: 37200 for the first, 64400 for the second.

Compared with “CVFDMPCLWYGVYLVWFGVFSYLLLWCFALGAYYSSTVWSILWLIAAGSWCRQ”, “ESGWIYVSVTTFFTSIALLGVMIACMVLRTHLFIWTVFSPKYLYSMAWSLGQH” is lower in “transcriptional activation domain activity” value: 73300 for the first, 55900 for the second.

First: MCIFFCPVSSLEVIWSVFLVFFYGYIFFTFFFLQCRSMVLIIPFLFTLVFHIF
Second: EWVIGWCKQIGLPDGVTEFIGRSYIMTAEAYLDLPMSKQVLVPVVAINTLVFV
The “transcriptional activation domain activity” value of the first is higher: 42700 for the first, 34200 for the second.

Compared with “STQCSCEDESCPCVNCLIHRSEEELNSYIQQSGVPLTNIGEAQITDKMMDYLD”, “AQRHLLKCIVFRTEKSLINFVPELTEAKARDIRMLHFYPPALQRAALILLVKT” is lower in “transcriptional activation domain activity” value: 56900 for the first, 47500 for the second.

Compared with “MLLTLQSYFFFLLMFLVNSVSLLSFFSIFVFIIFLRYGCRMLWWHLHCIYPIF”, “ICNFFYKNILGMGVLFWYQIYCGWSSTYVYNYVYLLFWNVFWTLCPVIAIGLF” is higher in “transcriptional activation domain activity” value: 38000 for the first, 41800 for the second.

Compared with “FSMRFVVLIDLFATFLQPASIIYVLYLIYVAAFDKATAFPMISLIMLACIYGL”, “ILALSWGGGLYPWASYHVLVPLILGFCILVVFALYEIYMPLKYPLIPMSLFLN” is higher in “transcriptional activation domain activity” value: 17000 for the first, 40400 for the second.

First: LNVLLGFLLLCFPNLERMVLNFGTVIAGPNHPGTLRKGYCEHCKLGVNVLEFD
Second: GVENQVDFHHNEKHKLMLLKALGYRVLADINKVSVVMPAALVGTVVLTLRGRG
The “transcriptional activation domain activity” value of the first is higher: 62000 for the first, 44500 for the second.

First: MGFCSLYGSIFLFLFLVFFLLFFSSSVGNGASFFFFFPSILFWYSLYPLFTSF
Second: LLEELTQRLLQTDETPDSKVKDLSRFINMIILRFFATARRMAVFRALFNLLLH
The “transcriptional activation domain activity” value of the first is lower: 35900 for the first, 50300 for the second.

Compared with “FHFHLHSSISFPFPSLSLPFPFFPTSSSSSSPFLLHLFPFPSLFFPLLLLLLF”, “GSKMLTEFKKKLRLDYFMLLDLRLWKDMRMCLRKLFISTLIANLSYKRILGLR” is higher in “transcriptional activation domain activity” value: 56400 for the first, 61700 for the second.

First: IFTSFLLFHDPTLFMFISYDIAYVWWVHLMERLIEPLPLMCCFLIMPMICFVI
Second: EARRSTREREREEGKSSGGGKGRRGRSGKPRGGGRGAGASGANPGPGAAAGAE
The “transcriptional activation domain activity” value of the first is higher: 54400 for the first, 29100 for the second.

With “IFFVLPVFFFFHPPPFVFLPPSSFLPFLLLLLLLPLVLFISPPFSPSVAFYFT” the “transcriptional activation domain activity” value was 54100.
